{
  "source": "patent US10465005B2",
  "about": "“JAML specific binding agents, antibodies, and uses related thereto” (Emory University, priority 2011, dated 2019)",
  "key": {"[1]": {"target": "T1, CHO-JAML-His and CHO JAML-6xMyc (Homo sapiens, UniProt Q86YT9)", "T1 construct": "6xMyc (cell line CHO JAML-6xMyc); expressed in transfected cells", "T1 sequence (Q86YT9 20-394)": "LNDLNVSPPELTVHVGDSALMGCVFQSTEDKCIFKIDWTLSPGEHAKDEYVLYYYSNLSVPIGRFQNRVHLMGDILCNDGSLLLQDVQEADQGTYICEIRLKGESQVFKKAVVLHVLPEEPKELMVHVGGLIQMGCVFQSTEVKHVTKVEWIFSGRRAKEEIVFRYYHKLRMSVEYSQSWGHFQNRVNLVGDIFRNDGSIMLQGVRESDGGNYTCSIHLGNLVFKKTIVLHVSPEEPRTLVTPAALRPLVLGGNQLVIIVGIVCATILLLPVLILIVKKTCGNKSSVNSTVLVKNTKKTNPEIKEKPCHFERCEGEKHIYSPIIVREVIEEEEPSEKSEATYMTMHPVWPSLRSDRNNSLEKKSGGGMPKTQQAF", "assay": "FACS staining of stably transfected CHO-JAML cell lines", "type": "binding", "conditions": "FIG. 1A", "from_the_text": "BALB/c mice were immunized with recombinant soluble fragment of JAML.D1D2 tagged with 10 His residues at the C-terminus (sJAML-His), generated in H293T cells and purified by Nickel chromatography. After the 4th boost, mice were given a final immunization and, 3 days later, spleen cells harvested and fused to the myeloma cell line P3U1. Hybridomas were selected in HAT medium and supernatants of clones were subjected to screening first to immobilized, soluble JAML and followed by staining of CHO-JAML stable transfectants. Three hybridomas were selected and antibodies were purified from ascites. FACS staining profiles of mAbs using two different, stably transfected CHO-JAML cell lines, CHO-JAML-His and CHO JAML-6xMyc, both membrane bound and tagged at the C-terminus with either 10-His or 6xMyc. Control antibody is 9E10 anti Myc.\nThese hybridomas were further tested for reactivity against tagged, full-length JAML expressed on the surface of cultured cells. CHO-JAML-6XMyc transfectants were aliquoted and pelleted into round bottom 96 well plates. 100 μl hybridoma supernatants were added for 1 hr at 4° C. Cells were washed and positive wells were identified by FACS analysis using Goat anti Mouse-AlexaFluor 488. Cells from positive wells were cloned by limiting dilution at one cell per well and expanded first in DMEM-10% FBS containing HAT then in medium containing HT (ATCC) and later DMEM, 10% FBS. The cloned cells of interest were sent to Harlan Laboratories (Indianapolis, Ind.) for production of ascites. Antibodies were purified from ascitic fluid using proteinA-Sepharose (GE Healthcare) followed by dialysis against PBS. Aliquots were frozen at −80° C. Ig subclass of each antibody was determined by using the IsoStrip Mouse Monoclonal Antibody Isotyping Kit (Roche Applied Science). […]\nCells suspensions of adherent cells were prepared by trypsinization with Trypsin-EDTA (Sigma). […] After final washes, cells were analyzed using FACS Calibur. […] All samples were stained for JAML (DW100 mAb) and CD11b/CD18 (CBRM 1/29), and only CD11b/CD18 positive cells (PMNs) were analyzed for JAML expression."}, "JAML D1 domain": {"target": "T2, JAML D1 domain (Homo sapiens, UniProt Q86YT9)", "T2 construct": "made in house; host or cells: HEK293T", "T2 sequence (Q86YT9 20-140)": "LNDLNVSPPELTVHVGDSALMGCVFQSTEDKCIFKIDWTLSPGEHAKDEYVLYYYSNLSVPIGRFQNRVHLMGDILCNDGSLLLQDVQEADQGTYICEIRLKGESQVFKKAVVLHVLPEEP", "assay": "Domain specificity ELISA on sJAML-His, sJAML.D1-Fc, sJAML.D2-Fc", "type": "binding", "conditions": "sJAML.D2-Fc coated, FIG. 1B", "method": "FIG. 1B. sJAML-His and purified soluble, mutant fragments of JAML, tagged with rabbit Fc (membrane distal Ig loop: sJAML.D1-Fc and membrane proximal Ig loop: sJAML.D2-Fc) were coated on Immulon II microtiter wells overnight at 4° C. After blocking and washing, antibodies were added to wells for 1 hour and the assay developed with HRP conjugated goat anti mouse Ig (H+L). After addition of ABTS, microtiter wells were analyzed in a microtiter plate reader at 405 nm wavelength. M3 is polyclonal mouse serum collected from the sJAML-His immunized mouse before the fusion. 9E10 anti Myc was used as control.\nTo determine the domain specificity of monoclonal antibodies, soluble full length JAML.D1D2-His (sJAML-His), truncated extracellular fragments: soluble membrane distal fragment JAML.D1-Fc (sJAML.D1-Fc), and soluble membrane proximal fragment JAML.D2-Fc (sJAML.D2-Fc), both tagged with rabbit Fc, were generated and tested for antibody binding. […] Polyclonal serum (M3) was collected from the immunized mouse prior the fusion and was used as the positive control in the binding assay."}, "[2]": {"target": "T3, CAR binding to JAML on CHO cells (Homo sapiens, UniProt Q86YT9)", "T3 construct": "expressed in transfected cells", "T3 sequence (Q86YT9 20-394)": "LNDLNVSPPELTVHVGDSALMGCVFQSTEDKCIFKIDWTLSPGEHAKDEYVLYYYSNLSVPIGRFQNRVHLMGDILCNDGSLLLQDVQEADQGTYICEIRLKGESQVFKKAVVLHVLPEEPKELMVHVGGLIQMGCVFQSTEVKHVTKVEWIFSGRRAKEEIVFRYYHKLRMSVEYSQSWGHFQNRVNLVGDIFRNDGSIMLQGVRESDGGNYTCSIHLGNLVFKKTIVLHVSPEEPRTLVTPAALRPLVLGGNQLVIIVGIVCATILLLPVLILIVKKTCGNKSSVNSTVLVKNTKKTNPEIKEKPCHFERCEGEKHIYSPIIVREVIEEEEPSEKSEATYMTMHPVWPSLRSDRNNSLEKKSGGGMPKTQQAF", "assay": "CAR-GST binding to CHO-JAML by flow cytometry", "type": "cell-based", "conditions": "CAR-GST 20 μg/ml, mAbs 30 μg/ml, FIG. 7C", "method": "FIG. 7C. CHO-K1 cells stably expressing JAML (CHO-JAML) were incubated with CAR-GST alone (20 μg/ml, left panel) or in the presence of DW216 and DW100 mAbs (30 μg/ml, right panel) as described for sJAML and the binding was measured by flow cytometry.\nAs it has been established that epithelial CAR is the ligand for JAML on PMN. Whether shed JAML, as well as the recombinant protein could bind to CAR was investigated. To do this, CHO cells stably expressing CAR protein (CHO-CAR) were incubated with either supernatants from PMA activated differentiated PLB-985 (that release high levels of soluble JAML upon activation, (FIG. 2)), or recombinant soluble JAML and stained with DW216 to detect bound JAML. […] The same observation was verified by IF (FIG. 7B). […] The calcium depletion disrupts intercellular junctions of the epithelium and allows for better penetration of soluble JAML."}, "[3]": {"test_system": "PMN transepithelial migration", "assay": "PMN transepithelial migration", "type": "cell-based, human"}},
  "note": "Entries after “also recorded” stand apart in the source; their conditions may differ.",
  "data": [
    {"molecule": "DW100: monoclonal anti-human JAML antibody (IgG1,κ), hybridoma ATCC PTA-13051; VH SEQ ID NO:19, VL SEQ ID NO:22 (antibody, V domains shown) VH: DVQLVESGAELVRPGASKLSCKALAYTFTDYEMHWVKQTPVHGLEWIGIIHPGSGGTVYNQKFKGKATLTADKSSSTAYMELSSLTSEDSTVYYCTRRRYYGSSYNWYFDVWGAGN VL: VLTQSPASLAASVGETVTITCRASENIYYSLAWYQQKQGKSPQLLIYNANSLEDGVPSRFSGSGSGTQYSLKINSMQPEDTATYFCEQTYDVPLTFGAGTKLEL", "values": [
      {"measurement": "FACS staining of CHO-JAML transfectant lines", "setting": "[1]", "value": "stained both transfectant lines equally well"},
      {"measurement": "JAML domain bound", "setting": "JAML D1 domain", "value": "binds the D1 domain of JAML; also recorded: specifically binds JAML D1 domain"},
      {"measurement": "prevention of CAR-GST binding to CHO-JAML", "setting": "[2]", "value": "blocked by DW100"},
      {"measurement": "inhibitory effect on PMN transepithelial migration", "setting": "[3]", "value": "~15", "unit": "%"}
    ]}
  ]
}
